B1: anti-idiotypic antibody 8A3 (antibody, V domains shown)
VH: QVQLQQSGAELAKPGASVKMSCKASGYNFTTYWMHWVKQRPGQGLEWIGYINPSTDYTEYNQKFKYKATLTADKSSSTAYIQLSSLTSEDSAVYYCARWWDYDWYFDVWGAGTPLTVSS
VL: DIVMTQSQEFMSTSVGDRVSVTCKASQTVDTNVAWYQQKLGQSPKPLIYSASYRCSGVPDRFTGSGSRTDFTLTITNVQSEDLAEYFCQQYHSFPWTFGGGTKVEIKR
notes: Murine monoclonal antibody raised against 2H7.v16; It was biotinylated when used as detection antibody and unlabeled when coated; also called MAb 8A3; 8A3-bio
B2: humanized 2H7 variant v511 (antibody, human IgG1, kappa, V domains shown)
VH: EVQLVESGGGLVQPGGSLRLSCAASGYTFTSYNMHWVRQAPGKGLEWVGAIYPGNGATSYNQKFKGRFTISVDKSKNTLYLQMNSLRAEDTAVYYCARVVYYSYRYWYFDVWGQGTLVTVSS
VL: DIQMTQSPSSLSASVGDRVTITCRASSSVSYLHWYQQKPGKAPKPLIYAPSNLASGVPSRFSGSGSGTDFTLTISSLQPEDFATYYCQQWAFNPPTFGQGTKVEIKR
notes: also called 2H7.v511
B3: humanized anti-CD20 antibody 2H7.v16 (antibody, human IgG1, kappa)
heavy: not shown
light: DIQMTQSPSSLSASVGDRVTITCRASSSVSYMHWYQQKPGKAPKPLIYAPSNLASGVPSRFSGSGSGTDFTLTISSLQPEDFATYYCQQWSFNPPTFGQGTKVEIKRTVAAPSVFIFPPSDEQLKSGTASVVCLLNNFYPREAKVQWKVDNALQSGNSQESVTEQDSKDSTYSLSSTLTLSKADYEKHKVYACEVTHQGLSSPVTKSFNRGEC
notes: Human IgG1, expressed in 293 cells; also called humanized anti-CD20 IgG; humanized 2H7

Tests used:
[1] = target: B2; assay: sandwich ELISA, 8C5 coat, biotinylated 8A3 detection, mouse serum
[2] = target: T1, humanized anti-CD20 antibody 2H7.v31; assay: ELISA, 8A3 coated on plate, anti-human IgG Fc-HRP detection
T1 construct: The L chain is the same as for 2H7.v16

[3] = target: B3; assay: as above
[4] = target: B1; assay: sandwich ELISA in mouse serum, 8C5 coat + 2H7 + 8A3-bio; the signal needs binding to both 8C5 and 8A3
[5] = target: B1; assay: ELISA, plate coated with 8A3, serially diluted antibody, detection with goat anti-human IgG Fc-HRP

Binder: B1
binding result [1]: binds
binding result [2]: binds
binding result [3]: binds

Binder: B2
binding result [4]: binds

Binder: B3
binding result [5]: binds
